Reference: US20200031893

Assays:
[1] = tested on: proNGF mutant SP174-101 (protease cleavage site mutated to VSAR)
proNGF mutant SP174-101 (protease cleavage site mutated to VSAR), sequence (chain, as listed by the source mutant): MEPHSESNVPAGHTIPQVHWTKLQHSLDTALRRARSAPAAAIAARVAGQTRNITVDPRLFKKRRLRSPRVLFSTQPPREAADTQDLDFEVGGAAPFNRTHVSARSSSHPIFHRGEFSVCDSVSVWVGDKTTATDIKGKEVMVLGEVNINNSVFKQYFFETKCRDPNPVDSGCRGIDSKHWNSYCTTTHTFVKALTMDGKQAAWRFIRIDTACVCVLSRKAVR

## Trypsin (Roche, GMP grade)
[1]
  % ProNGF remaining after tryptic digestion, Trypsin/ProNGF ratio 1/10000 (HPLC-UV): 1.9%
  % betaNGF (cleavage yield) after tryptic digestion, Trypsin/ProNGF ratio 1/10000 (HPLC-UV): 84.5%
  tryptic digestion, trypsin:proNGF 1:10,000 (w/w), 18 h, room temperature, SDS-PAGE: A complete digestion of proNGF mutant to beta-NGF could be observed
Human wild-type proNGF
  % ProNGF remaining after tryptic digestion, Trypsin/ProNGF ratio 1/250 (HPLC-UV): 0%
  % ProNGF remaining after tryptic digestion, Trypsin/ProNGF ratio 1/1000 (HPLC-UV): 0%
  % ProNGF remaining after tryptic digestion, Trypsin/ProNGF ratio 1/5000 (HPLC-UV): 21.5%
  % ProNGF remaining after tryptic digestion, Trypsin/ProNGF ratio 1/10000 (HPLC-UV): 67.1%
  % betaNGF (cleavage yield) after tryptic digestion, Trypsin/ProNGF ratio 1/250 (HPLC-UV): 67.9%
  % betaNGF (cleavage yield) after tryptic digestion, Trypsin/ProNGF ratio 1/1000 (HPLC-UV): 77.9%
  % betaNGF (cleavage yield) after tryptic digestion, Trypsin/ProNGF ratio 1/5000 (HPLC-UV): 18.6%
  % betaNGF (cleavage yield) after tryptic digestion, Trypsin/ProNGF ratio 1/10000 (HPLC-UV): 4.6%
  % betaNGF Overdigested Forms after tryptic digestion, Trypsin/ProNGF ratio 1/250 (HPLC-UV): 25.7%
  % betaNGF Overdigested Forms after tryptic digestion, Trypsin/ProNGF ratio 1/1000 (HPLC-UV): 12.9%
  % betaNGF Overdigested Forms after tryptic digestion, Trypsin/ProNGF ratio 1/5000 (HPLC-UV): 6.6%
